Experimental data reported in patent US20170226175A1 (HANMI PHARM, published 2017).

Experiments:
Assay in all cases: SPR (BIACORE 3000), hGLP-1R/GST amine-coupled to CM5 chip, 1:1 Langmuir fit
[1] = molecular target: Native exendin-4 (exenatide: BYETTA)
Procedure: (§1) The binding activity of the GLP-1 receptor and the insulinotropic peptide derivative with a modified N-terminal charge were measured using a surface plasmon resonance (SPR) apparatus (BIACORE 3000, GE Healthcare).
(§2) The GLP-1 receptor was expressed from CHO-DG44 cells in hGLP-1R/GST form. The expressed hGLP-1R/GST was immobilized to a CM5 chip by amine coupling. To the hGLP-1R/GST-immobilized CM5 chip, the insulinotropic peptide derivatives with a modified N-terminal charge were diluted by concentration and then added to determine the binding activity with the GLP-1 receptor.

[2] = molecular target: imidazoacetyl-exendin-4 (CA-exendin-4)
Procedure: as §1, §2

[3] = molecular target: DA-exendin-4-propyl-amide
Procedure: as §1, §2

[4] = molecular target: desamino-histidyl-exendin-4 (DA-exendin-4)
Procedure: as §1, §2

[5] = molecular target: beta-hydroxy imidazopropionyl-exendin-4 (HY-exendin-4)
Procedure: as §1, §2

B1: hGLP-1R/GST (receptor)
chain: RPQGATVSLWETVQKWREYRRQCQRSLTEDPPPATDLFCNRTFDEYACWPDGEPGSFVNVSCPWYLPWASSVPQGHVYRFCTAEGLWLQKDNSSLPWRDLSECEESKRGERSSPEEQLLFLY
notes: Expressed from CHO-DG44 cells and immobilized on a CM5 chip by amine coupling; also called GLP-1 receptor; GLP-1 receptor in hGLP-1R/GST form; not shown: GST (glutathione S-transferase) fusion partner
How did the Kd [1] turn out when B1 was run?
Its Kd is 1.4 nM.

What about the koff [1] of the same binder?
Its koff is 0.000526 s⁻¹.

What about the kon [1] of the same binder?
The kon was 370000 M⁻¹ s⁻¹.

What about the Kd [2] of the same binder?
Its Kd is 26.3 nM.

And the koff [2]?
Its koff is 0.00315 s⁻¹.

What about the kon [2] of the same binder?
The kon was 120000 M⁻¹ s⁻¹.

And the Kd [3]?
Its Kd is 32.6 nM.

What about the koff [3] of the same binder?
The koff was 0.00335 s⁻¹.

And the kon [3]?
The kon was 104000 M⁻¹ s⁻¹.

And the Kd [4]?
The Kd was 32.2 nM.

What about the koff [4] of the same binder?
The koff was 0.00365 s⁻¹.

And the kon [4]?
The kon was 113000 M⁻¹ s⁻¹.

And the Kd [5]?
Its Kd is 42.7 nM.

And the koff [5]?
Its koff is 0.00383 s⁻¹.

What about the kon [5] of the same binder?
Its kon is 90000 M⁻¹ s⁻¹.
